# In publication PMC8011160:
# pKd: −log10 of the molar value. “And” between values parts separate entries of the source, which are not always exact repeats. Identical values can stand only once.
# Tests used:
# Test in all cases: ELISA; host protein coated on microtiter wells; recombinant protein varied from 0 to 2 μM; absorbance with BSA subtracted; apparent Kd from the half-maximal binding concentration (GraphPad Prism 6)
# [1] = target: plasminogen (purified from human plasma) (human)
# [2] = target: plasma fibronectin (purified from human plasma) (human)
# [3] = target: elastin (purified from bovine neck ligament) (bovine) (UniProt P04985)
# [4] = target: fibrinogen (purified from human plasma) (human) (UniProt P02671)
# [5] = target: collagen Type IV (purified from basement membrane of Engelbreth-Holm-Swarm mouse sarcoma) (mouse) (UniProt P02463)
# [6] = target: collagen Type I (purified from rat tail) (rat) (UniProt P02454)
# [7] = target: laminin (purified from basement membrane of Engelbreth-Holm-Swarm mouse sarcoma) (mouse) (UniProt P19137)
# GroEL protein of Leptospira interrogans (recombinant, His-tagged), sequence (P61438 whole entry): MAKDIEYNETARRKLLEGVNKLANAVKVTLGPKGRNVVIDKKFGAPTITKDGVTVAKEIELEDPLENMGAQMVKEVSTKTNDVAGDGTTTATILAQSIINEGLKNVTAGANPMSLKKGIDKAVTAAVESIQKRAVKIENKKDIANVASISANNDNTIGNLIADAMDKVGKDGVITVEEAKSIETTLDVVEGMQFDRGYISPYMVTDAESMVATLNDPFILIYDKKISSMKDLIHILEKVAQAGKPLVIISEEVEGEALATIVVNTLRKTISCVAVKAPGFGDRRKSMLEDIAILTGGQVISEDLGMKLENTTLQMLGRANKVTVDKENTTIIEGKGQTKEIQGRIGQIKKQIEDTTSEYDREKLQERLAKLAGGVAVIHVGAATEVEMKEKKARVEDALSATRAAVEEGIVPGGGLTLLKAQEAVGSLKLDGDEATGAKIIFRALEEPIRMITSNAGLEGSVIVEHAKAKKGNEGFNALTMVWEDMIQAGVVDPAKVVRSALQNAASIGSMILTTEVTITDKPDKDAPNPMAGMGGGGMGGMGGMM
# collagen Type IV (purified from basement membrane of Engelbreth-Holm-Swarm mouse sarcoma) (mouse), sequence (P02463 173-1669, chain 1 of 2): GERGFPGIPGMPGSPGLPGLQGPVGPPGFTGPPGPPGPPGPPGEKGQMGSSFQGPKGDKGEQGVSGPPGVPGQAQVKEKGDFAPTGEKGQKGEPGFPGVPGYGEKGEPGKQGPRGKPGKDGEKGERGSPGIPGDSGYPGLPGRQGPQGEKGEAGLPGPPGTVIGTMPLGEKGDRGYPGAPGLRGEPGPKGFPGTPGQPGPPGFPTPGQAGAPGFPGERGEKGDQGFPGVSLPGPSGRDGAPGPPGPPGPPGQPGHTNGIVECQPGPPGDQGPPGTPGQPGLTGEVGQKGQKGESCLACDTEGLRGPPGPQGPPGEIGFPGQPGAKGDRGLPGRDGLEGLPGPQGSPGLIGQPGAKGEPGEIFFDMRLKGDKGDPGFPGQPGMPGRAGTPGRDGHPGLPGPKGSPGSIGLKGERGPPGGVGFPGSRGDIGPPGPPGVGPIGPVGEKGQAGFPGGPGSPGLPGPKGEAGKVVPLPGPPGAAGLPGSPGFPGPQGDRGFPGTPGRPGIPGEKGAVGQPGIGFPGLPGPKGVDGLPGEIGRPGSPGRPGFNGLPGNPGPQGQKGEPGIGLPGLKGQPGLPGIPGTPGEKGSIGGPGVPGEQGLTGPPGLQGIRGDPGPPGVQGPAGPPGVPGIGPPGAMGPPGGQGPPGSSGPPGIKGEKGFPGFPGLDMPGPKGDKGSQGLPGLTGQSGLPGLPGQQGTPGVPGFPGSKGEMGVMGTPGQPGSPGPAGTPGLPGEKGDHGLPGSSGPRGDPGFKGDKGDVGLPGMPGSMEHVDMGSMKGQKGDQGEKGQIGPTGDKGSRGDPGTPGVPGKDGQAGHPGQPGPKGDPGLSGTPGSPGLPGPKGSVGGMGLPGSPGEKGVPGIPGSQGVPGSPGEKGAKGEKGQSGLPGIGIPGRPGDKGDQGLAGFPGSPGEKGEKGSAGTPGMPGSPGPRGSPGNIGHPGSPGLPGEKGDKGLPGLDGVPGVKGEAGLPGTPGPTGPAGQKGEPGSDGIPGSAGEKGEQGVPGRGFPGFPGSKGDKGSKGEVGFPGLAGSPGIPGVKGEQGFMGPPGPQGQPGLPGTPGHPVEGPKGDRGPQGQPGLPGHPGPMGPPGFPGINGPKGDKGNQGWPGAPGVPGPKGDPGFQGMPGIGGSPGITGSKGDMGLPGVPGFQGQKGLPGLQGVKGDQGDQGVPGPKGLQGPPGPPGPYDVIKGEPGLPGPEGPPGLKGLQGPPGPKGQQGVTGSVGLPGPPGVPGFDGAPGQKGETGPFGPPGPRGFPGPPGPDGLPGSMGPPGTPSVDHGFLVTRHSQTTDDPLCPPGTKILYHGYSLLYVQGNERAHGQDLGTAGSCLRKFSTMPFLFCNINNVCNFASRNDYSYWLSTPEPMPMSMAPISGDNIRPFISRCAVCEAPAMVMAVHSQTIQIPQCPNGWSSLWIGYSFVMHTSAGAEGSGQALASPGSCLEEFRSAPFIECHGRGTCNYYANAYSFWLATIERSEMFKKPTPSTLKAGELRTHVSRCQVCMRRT
# collagen Type IV (purified from basement membrane of Engelbreth-Holm-Swarm mouse sarcoma) (mouse), sequence (P08122 184-1707, chain 2 of 2, further chain): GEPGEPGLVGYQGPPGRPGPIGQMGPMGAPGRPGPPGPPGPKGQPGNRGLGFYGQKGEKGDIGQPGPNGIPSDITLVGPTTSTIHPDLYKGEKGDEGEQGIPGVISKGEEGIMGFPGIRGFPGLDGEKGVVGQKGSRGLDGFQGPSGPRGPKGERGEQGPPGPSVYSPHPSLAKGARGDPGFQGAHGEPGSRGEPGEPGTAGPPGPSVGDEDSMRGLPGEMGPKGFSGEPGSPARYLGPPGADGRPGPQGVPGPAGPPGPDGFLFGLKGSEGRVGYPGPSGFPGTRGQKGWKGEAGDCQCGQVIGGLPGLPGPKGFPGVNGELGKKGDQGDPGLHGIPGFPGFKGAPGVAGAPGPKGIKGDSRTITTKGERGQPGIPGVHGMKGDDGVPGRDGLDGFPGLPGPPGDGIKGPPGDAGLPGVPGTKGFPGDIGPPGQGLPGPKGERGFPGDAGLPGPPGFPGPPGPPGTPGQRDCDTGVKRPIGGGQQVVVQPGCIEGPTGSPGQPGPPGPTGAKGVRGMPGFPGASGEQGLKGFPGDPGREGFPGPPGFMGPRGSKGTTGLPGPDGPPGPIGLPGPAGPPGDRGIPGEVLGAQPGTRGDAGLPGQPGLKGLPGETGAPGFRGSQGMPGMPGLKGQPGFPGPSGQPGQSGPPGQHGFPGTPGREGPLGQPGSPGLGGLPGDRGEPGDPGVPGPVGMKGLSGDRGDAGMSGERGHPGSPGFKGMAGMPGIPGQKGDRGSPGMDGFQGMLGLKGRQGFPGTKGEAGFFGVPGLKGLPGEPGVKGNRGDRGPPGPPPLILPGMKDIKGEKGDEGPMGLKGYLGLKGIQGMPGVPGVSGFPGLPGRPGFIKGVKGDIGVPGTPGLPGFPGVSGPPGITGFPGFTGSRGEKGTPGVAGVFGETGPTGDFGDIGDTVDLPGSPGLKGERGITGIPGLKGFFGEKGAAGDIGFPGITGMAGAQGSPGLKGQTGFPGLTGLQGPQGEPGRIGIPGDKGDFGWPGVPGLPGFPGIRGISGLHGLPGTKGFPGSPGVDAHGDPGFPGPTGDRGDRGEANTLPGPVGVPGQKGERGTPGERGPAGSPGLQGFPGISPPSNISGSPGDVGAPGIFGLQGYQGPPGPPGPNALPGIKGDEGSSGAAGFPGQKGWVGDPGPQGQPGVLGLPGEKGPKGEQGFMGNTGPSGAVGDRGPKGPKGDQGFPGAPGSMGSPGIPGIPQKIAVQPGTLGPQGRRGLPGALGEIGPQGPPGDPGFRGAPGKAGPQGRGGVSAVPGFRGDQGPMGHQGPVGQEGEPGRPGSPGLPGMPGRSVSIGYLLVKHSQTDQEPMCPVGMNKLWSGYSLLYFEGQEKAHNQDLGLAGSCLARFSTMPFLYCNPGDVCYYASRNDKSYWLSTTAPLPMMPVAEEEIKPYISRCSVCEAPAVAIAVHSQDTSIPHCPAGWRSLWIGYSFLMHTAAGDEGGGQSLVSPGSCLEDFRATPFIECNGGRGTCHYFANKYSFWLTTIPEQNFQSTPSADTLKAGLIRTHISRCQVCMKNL
# fibrinogen (purified from human plasma) (human), sequence (P02671 other isoform, or with tags, fused parts or gaps, chain 1 of 3): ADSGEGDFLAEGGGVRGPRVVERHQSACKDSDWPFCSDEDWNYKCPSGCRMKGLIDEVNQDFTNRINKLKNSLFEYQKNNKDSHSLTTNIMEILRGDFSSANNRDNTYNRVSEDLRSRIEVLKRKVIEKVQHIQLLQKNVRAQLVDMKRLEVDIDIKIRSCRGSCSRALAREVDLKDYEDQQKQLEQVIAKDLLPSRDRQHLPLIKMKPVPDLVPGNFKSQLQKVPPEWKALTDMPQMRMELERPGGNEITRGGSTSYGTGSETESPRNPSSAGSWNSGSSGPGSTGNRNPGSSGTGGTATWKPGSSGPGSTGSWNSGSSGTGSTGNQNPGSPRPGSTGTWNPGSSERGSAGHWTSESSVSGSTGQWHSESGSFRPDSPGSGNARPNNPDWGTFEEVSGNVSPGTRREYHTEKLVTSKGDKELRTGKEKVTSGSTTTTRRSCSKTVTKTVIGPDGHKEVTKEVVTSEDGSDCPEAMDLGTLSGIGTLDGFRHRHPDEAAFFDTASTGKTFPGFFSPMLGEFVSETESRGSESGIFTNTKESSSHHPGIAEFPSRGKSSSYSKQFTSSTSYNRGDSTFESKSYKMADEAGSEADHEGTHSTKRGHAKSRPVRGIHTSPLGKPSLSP
# fibrinogen (purified from human plasma) (human), sequence (P02675 31-491, chain 2 of 3, further chain): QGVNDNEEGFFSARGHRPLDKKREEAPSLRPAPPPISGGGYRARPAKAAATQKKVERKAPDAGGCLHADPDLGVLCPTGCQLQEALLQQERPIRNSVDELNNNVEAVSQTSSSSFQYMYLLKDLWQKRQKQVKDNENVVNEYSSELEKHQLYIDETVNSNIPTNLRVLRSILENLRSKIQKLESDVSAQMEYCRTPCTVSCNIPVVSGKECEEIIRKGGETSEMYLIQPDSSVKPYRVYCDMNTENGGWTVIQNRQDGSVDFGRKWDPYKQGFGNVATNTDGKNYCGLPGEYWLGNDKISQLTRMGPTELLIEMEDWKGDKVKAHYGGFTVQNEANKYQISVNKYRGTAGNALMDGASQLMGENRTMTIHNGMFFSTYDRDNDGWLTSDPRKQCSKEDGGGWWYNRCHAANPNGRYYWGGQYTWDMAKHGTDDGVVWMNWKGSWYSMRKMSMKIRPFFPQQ
# fibrinogen (purified from human plasma) (human), sequence (P02679 other isoform, or with tags, fused parts or gaps, chain 3 of 3, further chain): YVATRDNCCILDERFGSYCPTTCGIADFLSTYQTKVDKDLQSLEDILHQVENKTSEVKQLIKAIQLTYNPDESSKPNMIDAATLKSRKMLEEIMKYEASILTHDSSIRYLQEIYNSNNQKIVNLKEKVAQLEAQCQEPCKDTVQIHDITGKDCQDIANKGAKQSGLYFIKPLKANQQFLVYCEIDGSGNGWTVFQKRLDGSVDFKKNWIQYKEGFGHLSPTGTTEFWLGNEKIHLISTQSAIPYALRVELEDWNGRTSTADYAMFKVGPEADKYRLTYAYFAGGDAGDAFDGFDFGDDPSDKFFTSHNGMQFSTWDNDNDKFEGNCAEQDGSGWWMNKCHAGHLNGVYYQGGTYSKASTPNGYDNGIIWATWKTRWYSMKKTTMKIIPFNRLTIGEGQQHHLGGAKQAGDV
Substance,pKd [1],pKd [2],pKd [3],pKd [4],pKd [5],pKd [6],pKd [7]
"truncated form of leptospiral immunoglobulin-like protein B (LigBC, amino acids 631-1156) (from UniProt Q72V39 631-1156) (domain or fragment)",8.30,7.82 and 8.22,,,,,
"GroEL protein of Leptospira interrogans (recombinant, His-tagged) (from UniProt P61438 1-546) (natural protein)",7.51,7.47 and 8.00,,,,,
leptospiral protein 25 (Lp25) (natural protein),5.35,5.27 and 5.20,6.22,6.22,5.62,6.16,5.94
